This is an account of results in patent US20250171543A1 (TAIZHOU ENZE MEDICAL CENTER GROUP, published 2025).

For one assay, the target named is T1, HLA-G6 (human, UniProt P17693-6 25-227).
T1 construct: also called HLA-G isoform standard protein HLA-G6; K562-HLA-G6
Briefly: intracellular flow cytometry, FITC-labeled antibody on permeabilised K562-HLA-G6 cells.

The target of assay [1] is T2, immunogen peptide QTDRMNLQTLRGYYNQSEAS (positions 72-91 in the heavy chain α1 domain of the HLA-G molecule) (human).
T2 construct: Synthetic peptide, coated on the ELISA plate at 2 µg/ml; also called antigen
T2 peptide: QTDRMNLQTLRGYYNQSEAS
Kind of assay: ELISA on coated peptide, 2-fold dilution series.
Method: (§1) The antigen (SEQ No.19 [sequence]) was diluted with coating solution to a final concentration of 2 μg/ml, 10 μL/well, overnight at 4° C.; then washed twice with the washing solution; blocked with the blocking solution at 200 μL/well, incubated at 37° C. for 2 hours; then washed once with the washing solution. The purified antibody was diluted gradiently with PBS by 2-fold starting from 200-fold, using PBS as the blank control, both 100 μL/well, incubated at 37° C. for 1 hour; and then washed 3 times with the washing solution. The secondary antibody diluted by 20,000-fold with PBS was added at 100 L/well, and incubated in a 37° C. incubator for 1 hour; taken out and washed 3 times with the washing solution. Then color development was performed with the developing solution at 100 μL/well for 5-15 minutes. Then 50 μL of stop solution was added, and the absorbance was measured at dual wavelengths (450, 630), and a plot was drawn for analysis.

A further assay deals with T3, HLA-G5 (human, UniProt P17693-5 25-319).
T3 construct: also called HLA-G isoform standard protein HLA-G5; K562-HLA-G5
Kind of assay: intracellular flow cytometry, FITC-labeled antibody on permeabilised K562-HLA-G5 cells. On the technique in general: Flow cytometry measures light scatter and fluorescence of single cells or particles in a stream.

In the next assay the target is T4, HLA-G4 (human, UniProt P17693-4 25-246).
T4 construct: also called HLA-G isoform standard protein HLA-G4; K562-HLA-G4
Briefly: intracellular flow cytometry, FITC-labeled antibody on permeabilised K562-HLA-G4 cells.

Another assay addresses T5, HLA-G3 (human, UniProt P17693-3 25-154).
T5 construct: also called HLA-G isoform standard protein HLA-G3; K562-HLA-G3
Briefly: intracellular flow cytometry, FITC-labeled antibody on permeabilised K562-HLA-G3 cells.

Another assay has as its target T6, HLA-G2 (human, UniProt P17693-2 25-246).
T6 construct: also called HLA-G isoform standard protein HLA-G2; K562-HLA-G2
Kind of assay: intracellular flow cytometry, FITC-labeled antibody on permeabilised K562-HLA-G2 cells.

The target of assay [2] is T2, immunogen peptide QTDRMNLQTLRGYYNQSEAS …. Kind of assay: ELISA on coated peptide, logistic fit, affinity constant = 150000 x dilution factor / antibody concentration.
Method: as §1
For a further assay, the target named is T7, HLA-G7 (human, UniProt P17693-7 25-116).
T7 construct: also called HLA-G isoform standard protein HLA-G7; K562-HLA-G7
Kind of assay: immunoblot of standard proteins, antibody 1.0 µg/ml.

Method for HLA-G2: (§2) The cell cultures expressing the K562 (blank control), K562-HLA-G1, K562-HLA-G2, K562-HLA-G3, K562-HLA-G4, K562-HLA-G5, K562-HLA-G6 and K562-HLA-G7 in the logarithmic growth phase were used. The detection was conducted by intracellular flow cytometry.
(§3) Detection of intracellular molecule expression by flow cytometry: The cell cultures of K562, K562-HLA-G1, K562-HLA-G2, K562-HLA-G3, K562-HLA-G4, K562-HLA-G5, K562-HLA-G6, K562-HLA-G7 were collected in test tubes, centrifuged and washed twice with 2% BSA/PBS (250 g), then 250 μL of cell membrane-breaking agent (BD Cytofix/Cytoperm™) was added, fully mixed, and placed in the refrigerator at 4° C. for 20 minutes. Then 1 ml of BD Perm/Wash™ was added to centrifuge and wash twice (250 g).
Method for HLA-G3: as §2, §3
Method for HLA-G4: as §2, §3
Method for HLA-G5: as §2, §3
Method for HLA-G6: as §2, §3
Method for HLA-G7: After SDS-PAGE electrophoresis and transferred to PVDF membrane, the HLA-G isoform standard proteins HLA-G1, HLA-G2, HLA-G3, HLA-G4, HLA-G5, HLA-G6, HLA-G7 and HLA-G molecular standard proteins lacking al domain were blocked with 5% skimmed milk powder at room temperature for 4 hours, and washed with 0.2% TBS (Tween-20 PBS).

B1: monoclonal antibody YWHG-1 against HLA-G molecule (antibody, V domains shown)
VH: QLQESGTVLVRPGASVKLSCKASGYIFTSYWINWVKQRPGQGLEWIGNIYPSDSYTNFNQKFEDKATLTVDTSSSTAYMQFSSPTSEDSAVYYCTRFGYPFDYWGQGTTLTVSS
VL: DIVITQDELSLTVSLGDQASISCRTSQSFVHSNGNIYLEWFLQKPGQSPKLLIYKVSSRFSGVPDRFSGSGSGTDFTLKISRVEAEDLGIYYCFQGSHVPPTFGGGTKLEIK
notes: FITC-labeled in the flow cytometry assay; also called hybridoma CCTCC NO: 202120
Consider B1, for which the binding result with HLA-G6, with HLA-G5, with HLA-G4, in the assay with HLA-G3, with HLA-G2 and with HLA-G7 was “binds” each time. In assay [1], the “antibody dilution factor corresponding to 1/2 OD value” was 25600 fold dilution (of 1.9 mg/mL antibody). The molecule also returned a Ka in assay [2] of 2.02e+09 M⁻¹.
